From PMC2729916 (Nature, 2009)

T1: FLAG-UvrA (E. coli) (E. coli, UniProt P0A698 1-940)
T1 sequence (looked up): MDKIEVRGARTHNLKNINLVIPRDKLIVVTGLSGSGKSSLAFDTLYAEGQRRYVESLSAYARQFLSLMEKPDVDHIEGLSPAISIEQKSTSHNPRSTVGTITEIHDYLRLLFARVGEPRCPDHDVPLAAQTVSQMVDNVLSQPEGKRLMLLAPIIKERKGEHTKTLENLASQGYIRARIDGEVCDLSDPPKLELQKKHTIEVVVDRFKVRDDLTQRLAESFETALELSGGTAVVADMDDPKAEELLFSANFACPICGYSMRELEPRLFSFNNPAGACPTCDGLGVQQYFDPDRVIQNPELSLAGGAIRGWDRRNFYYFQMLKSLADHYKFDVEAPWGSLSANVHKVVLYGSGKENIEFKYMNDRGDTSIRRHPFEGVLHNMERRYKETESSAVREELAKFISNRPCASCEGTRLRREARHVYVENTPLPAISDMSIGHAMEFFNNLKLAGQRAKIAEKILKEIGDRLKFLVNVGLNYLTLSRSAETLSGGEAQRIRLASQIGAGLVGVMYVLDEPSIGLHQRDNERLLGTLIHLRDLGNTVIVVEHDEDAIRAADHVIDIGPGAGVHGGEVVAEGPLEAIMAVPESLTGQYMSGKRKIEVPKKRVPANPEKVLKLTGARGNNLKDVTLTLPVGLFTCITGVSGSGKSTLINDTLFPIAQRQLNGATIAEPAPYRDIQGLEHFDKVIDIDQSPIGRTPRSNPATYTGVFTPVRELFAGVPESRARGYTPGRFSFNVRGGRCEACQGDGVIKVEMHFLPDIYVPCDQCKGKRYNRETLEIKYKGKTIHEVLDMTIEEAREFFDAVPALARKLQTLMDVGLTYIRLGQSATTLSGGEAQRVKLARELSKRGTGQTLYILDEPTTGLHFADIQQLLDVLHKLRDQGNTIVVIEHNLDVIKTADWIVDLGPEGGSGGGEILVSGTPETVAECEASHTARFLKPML

T2: E. coli UvrA (E. coli, UniProt P0A698 1-940)
T2 sequence (looked up): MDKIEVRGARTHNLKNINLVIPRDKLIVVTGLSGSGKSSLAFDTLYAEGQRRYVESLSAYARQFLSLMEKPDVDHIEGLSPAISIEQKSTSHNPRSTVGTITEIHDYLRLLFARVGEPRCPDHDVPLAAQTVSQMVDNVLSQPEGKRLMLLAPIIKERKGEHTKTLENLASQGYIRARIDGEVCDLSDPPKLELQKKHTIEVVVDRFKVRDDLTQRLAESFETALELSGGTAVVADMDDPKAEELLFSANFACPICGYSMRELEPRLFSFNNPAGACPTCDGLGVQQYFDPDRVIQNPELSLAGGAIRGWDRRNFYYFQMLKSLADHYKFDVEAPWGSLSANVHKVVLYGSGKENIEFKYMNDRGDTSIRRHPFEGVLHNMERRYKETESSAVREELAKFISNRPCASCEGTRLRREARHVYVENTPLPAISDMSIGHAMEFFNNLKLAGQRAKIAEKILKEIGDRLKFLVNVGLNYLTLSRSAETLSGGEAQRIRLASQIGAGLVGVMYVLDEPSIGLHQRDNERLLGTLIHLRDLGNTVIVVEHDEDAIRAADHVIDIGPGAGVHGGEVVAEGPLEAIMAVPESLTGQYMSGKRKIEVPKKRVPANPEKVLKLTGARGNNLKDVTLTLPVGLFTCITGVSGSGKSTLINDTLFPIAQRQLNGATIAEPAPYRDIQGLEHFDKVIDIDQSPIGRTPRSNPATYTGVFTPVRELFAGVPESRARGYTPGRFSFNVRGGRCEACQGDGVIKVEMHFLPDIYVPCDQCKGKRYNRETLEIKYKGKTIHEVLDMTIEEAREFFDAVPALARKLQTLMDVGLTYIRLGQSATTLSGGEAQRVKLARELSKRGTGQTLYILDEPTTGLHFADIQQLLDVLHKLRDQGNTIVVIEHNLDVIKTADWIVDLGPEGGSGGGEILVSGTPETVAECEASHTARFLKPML

T3: E. coli UvrC (E. coli, UniProt P0A8G0 1-610)
T3 sequence (looked up): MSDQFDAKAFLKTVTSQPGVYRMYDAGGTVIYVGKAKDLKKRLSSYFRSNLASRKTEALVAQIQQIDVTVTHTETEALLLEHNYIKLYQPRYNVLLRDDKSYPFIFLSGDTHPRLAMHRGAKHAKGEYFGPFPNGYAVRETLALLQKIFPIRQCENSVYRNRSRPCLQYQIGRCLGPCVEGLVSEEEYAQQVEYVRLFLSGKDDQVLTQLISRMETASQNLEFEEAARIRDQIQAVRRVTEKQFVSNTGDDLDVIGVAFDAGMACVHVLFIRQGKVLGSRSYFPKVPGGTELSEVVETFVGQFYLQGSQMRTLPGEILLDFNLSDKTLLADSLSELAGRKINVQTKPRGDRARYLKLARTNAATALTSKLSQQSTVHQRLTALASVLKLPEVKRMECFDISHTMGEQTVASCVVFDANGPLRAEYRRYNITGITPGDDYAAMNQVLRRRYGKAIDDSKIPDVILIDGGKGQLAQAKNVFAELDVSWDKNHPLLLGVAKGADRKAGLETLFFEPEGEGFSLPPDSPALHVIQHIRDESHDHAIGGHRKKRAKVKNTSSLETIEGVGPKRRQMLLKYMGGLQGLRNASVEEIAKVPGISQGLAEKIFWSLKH


Key:
Test in all cases: far-Western, overlay or dot blot
FLAG-UvrA (E. coli) = target: T1, FLAG-UvrA (E. coli)
E. coli UvrA = target: T2, E. coli UvrA
E. coli UvrC = target: T3, E. coli UvrC

| binding result (FLAG-UvrA (E. coli)) | binding result (E. coli UvrA) | binding result (E. coli UvrC) | Binder |
| --- | --- | --- | --- |
| binds | – | – | S. pombe Atl1 (alkyltransferase-like protein 1) (natural protein) MRMDEFYTKVYDAVCEIPYGKVSTYGEIARYVGMPSYARQVGQAMKHLHPETHVPWHRVINSRGTISKRDISAGEQRQKDRLEEEGVEIYQTSLGEYKLNLPEYMWKP |
| – | binds | binds | FLAG-eAtl (E. coli alkyltransferase-like protein) (natural protein, UniProt P0AFP2 1-129, looked up) MLVSCAMRLHSGVFPDYAEKLPQEEKMEKEDSFPQRVWQIVAAIPEGYVTTYGDVAKLAGSPRAARQVGGVLKRLPEGSTLPWHRVVNRHGTISLTGPDLQRQRQALLAEGVMVSGSGQIDLQRYRWNY |
